Test results taken from publication PMC6011931, “Substrate scope of a dehydrogenase from Sphingomonas species A1 and its potential application in the synthesis of rare sugars and sugar derivatives” (Microbial Biotechnology, 2018).

Columns and labels:
Experiment in all cases: purified protein
Conditions in all cases: oxidation, 1 mM NAD+, 50 mM ammonium bicarbonate pH 7.9, 25 °C
purified protein [1] = substrate: O=C(O)C(=O)C[C@H](O)[C@H](O)CO; type: biochemical, Sphingomonas sp. A1
purified protein [2] = substrate: O=C(O)[C@@H](O)[C@H](O)[C@H](O)CO; type: biochemical, Sphingomonas sp. A1
purified protein [3] = substrate: O=C(O)[C@H](O)[C@@H](O)[C@H](O)CO; type: biochemical, Sphingomonas sp. A1
purified protein [4] = substrate: O=C(O)[C@@H](O)[C@@H](O)[C@@H](O)[C@H](O)CO; type: biochemical, Sphingomonas sp. A1
purified protein [5] = substrate: OCC(O)CO; type: biochemical, Sphingomonas sp. A1
purified protein [6] = substrate: O=C(O)[C@@H](O)[C@@H](O)[C@H](O)CO; type: biochemical, Sphingomonas sp. A1
purified protein [7] = substrate: O=C(O)[C@H](O)[C@@H](O)[C@@H](O)[C@H](O)CO; type: biochemical, Sphingomonas sp. A1
purified protein [8] = substrate: O=C(O)[C@H](O)[C@H](O)[C@H](O)CO; type: biochemical, Sphingomonas sp. A1
purified protein [9] = substrate: O=C(O)[C@H](O)[C@H](O)[C@H](O)[C@H](O)CO
purified protein [10] = substrate: O=C(O)[C@@H](O)[C@@H](O)[C@H](O)[C@H](O)CO
purified protein [11] = substrate: O=C(O)[C@@H](O)[C@H](O)[C@H](O)[C@H](O)CO
purified protein [12] = substrate: O=C(O)[C@H](O)[C@@H](O)[C@H](O)[C@H](O)CO

B1: SpsADH (Sphingomonas sp. A1) (protein)
chain: MFSDLKGKRILITGSTEGIGMATAIELARYGAVVGLNSHVDPADPALLLGKLREAGGDGAFFRADITKTAECQRLVSAFVERFDGIDVLINNAGGLAGRSNLENIDDAFYDRVMDLNGRSVLMMTKFAIPHLRASAKASGTTSAVISTGSIAAREGGGIGAGVYAASKAWLHDIHRNWVKEFTKDSIRFNIVAPGTVDTAFHADKSDELKTRIANSIPMGRFGTVQELAPAYVFFASHAASGYITGQILDVNGGQICP
notes: full length (258 residues), codon-optimised synthetic gene, N-terminal His6-tag kept (pET-28a), E. coli BL21(DE3), 29 500 Da; NAD+-dependent isoenzyme (printed locus SPH3227 may belong to the NADP+-dependent isoenzyme)
In the case of B1, the Km (purified protein [1]) is reported as 13 ± 3 mM, the Vmax (purified protein [1]) is reported as 2.8 µmol/min/mg and the kcat (purified protein [1]) is reported as 1.4 ± 0.08 s⁻¹. It also gave a kcat/Km (purified protein [1]) of 100 ± 30 M⁻¹ s⁻¹, a Km (purified protein [2]) of 27 ± 3 mM and a Vmax (purified protein [2]) of 0.01 µmol/min/mg. The kcat (purified protein [2]) was 0.0048 ± 0.0001 s⁻¹, the kcat/Km (purified protein [2]) was 0.18 ± 0.02 M⁻¹ s⁻¹ and the Km (purified protein [3]) was 24 ± 2 mM. It also gave a Vmax (purified protein [3]) of 0.066 µmol/min/mg, a kcat (purified protein [3]) of 0.032 ± 0.002 s⁻¹ and a kcat/Km (purified protein [3]) of 1.4 ± 0.2 M⁻¹ s⁻¹. It also gave a Km (purified protein [4]) of 6 ± 1 mM, a Vmax (purified protein [4]) of 0.042 µmol/min/mg and a kcat (purified protein [4]) of 0.021 ± 0.001 s⁻¹. The kcat/Km (purified protein [4]) was 3.4 ± 0.9 M⁻¹ s⁻¹, the Km (purified protein [5]) was 100 ± 10 mM and the Vmax (purified protein [5]) was 0.011 µmol/min/mg. For the same protein, the Km (purified protein [6]) was 27 ± 2 mM, the Vmax (purified protein [6]) was 0.0086 µmol/min/mg and the kcat (purified protein [6]) was 0.0042 ± 0.0001 s⁻¹. It also gave a kcat/Km (purified protein [6]) of 0.16 ± 0.02 M⁻¹ s⁻¹, a Km (purified protein [7]) of 50 ± 5 mM and a Vmax (purified protein [7]) of 0.016 µmol/min/mg. The kcat (purified protein [7]) was 0.0079 ± 0.0003 s⁻¹, the kcat/Km (purified protein [7]) was 0.16 ± 0.02 M⁻¹ s⁻¹ and the Km (purified protein [8]) was 16 ± 1 mM. It also gave a Vmax (purified protein [8]) of 0.01 µmol/min/mg, a kcat (purified protein [8]) of 0.0052 ± 0.0001 s⁻¹ and a kcat/Km (purified protein [8]) of 0.33 ± 0.03 M⁻¹ s⁻¹. For the same protein, the Km (purified protein [9]) was 16 ± 2 mM, the Vmax (purified protein [9]) was 0.36 µmol/min/mg and the kcat (purified protein [9]) was 0.18 s⁻¹. It also gave a kcat/Km (purified protein [9]) of 11 M⁻¹ s⁻¹, a Km (purified protein [10]) of 14 ± 1 mM and a Vmax (purified protein [10]) of 1.1 µmol/min/mg. It also gave a kcat (purified protein [10]) of 0.53 s⁻¹, a kcat/Km (purified protein [10]) of 38 M⁻¹ s⁻¹ and a Km (purified protein [11]) of 24 ± 4 mM. For the same protein, the Vmax (purified protein [11]) was 0.39 µmol/min/mg, the kcat (purified protein [11]) was 0.19 s⁻¹ and the kcat/Km (purified protein [11]) was 8 M⁻¹ s⁻¹. For the same protein, the Km (purified protein [12]) was 12 ± 1 mM, the Vmax (purified protein [12]) was 2 µmol/min/mg and the kcat (purified protein [12]) was 0.98 s⁻¹. It also gave a kcat/Km (purified protein [12]) of 82 M⁻¹ s⁻¹.
